These results are taken from article PMC9569552 (International Journal of Molecular Sciences, 2022).

This experiment has as its target T1, antigen c-MET (Homo sapiens (assumed), UniProt P08581).
T1 construct: c-MET used as antigen in the ForteBio Octet experiment; the construct of the antigen is unknown; also called mesenchymal-epithelial transition protein
Nature of the experiment: BLI; ForteBio Octet; who was immobilised and the conditions not given; KD from ForteBio Data Analysis Software 8.0; values compared 'if normalized to the same number of epitope of c-MET'.

The term Kd denotes the constant that tells how readily two partners part at equilibrium.

T1 sequence (P08581 25-1390): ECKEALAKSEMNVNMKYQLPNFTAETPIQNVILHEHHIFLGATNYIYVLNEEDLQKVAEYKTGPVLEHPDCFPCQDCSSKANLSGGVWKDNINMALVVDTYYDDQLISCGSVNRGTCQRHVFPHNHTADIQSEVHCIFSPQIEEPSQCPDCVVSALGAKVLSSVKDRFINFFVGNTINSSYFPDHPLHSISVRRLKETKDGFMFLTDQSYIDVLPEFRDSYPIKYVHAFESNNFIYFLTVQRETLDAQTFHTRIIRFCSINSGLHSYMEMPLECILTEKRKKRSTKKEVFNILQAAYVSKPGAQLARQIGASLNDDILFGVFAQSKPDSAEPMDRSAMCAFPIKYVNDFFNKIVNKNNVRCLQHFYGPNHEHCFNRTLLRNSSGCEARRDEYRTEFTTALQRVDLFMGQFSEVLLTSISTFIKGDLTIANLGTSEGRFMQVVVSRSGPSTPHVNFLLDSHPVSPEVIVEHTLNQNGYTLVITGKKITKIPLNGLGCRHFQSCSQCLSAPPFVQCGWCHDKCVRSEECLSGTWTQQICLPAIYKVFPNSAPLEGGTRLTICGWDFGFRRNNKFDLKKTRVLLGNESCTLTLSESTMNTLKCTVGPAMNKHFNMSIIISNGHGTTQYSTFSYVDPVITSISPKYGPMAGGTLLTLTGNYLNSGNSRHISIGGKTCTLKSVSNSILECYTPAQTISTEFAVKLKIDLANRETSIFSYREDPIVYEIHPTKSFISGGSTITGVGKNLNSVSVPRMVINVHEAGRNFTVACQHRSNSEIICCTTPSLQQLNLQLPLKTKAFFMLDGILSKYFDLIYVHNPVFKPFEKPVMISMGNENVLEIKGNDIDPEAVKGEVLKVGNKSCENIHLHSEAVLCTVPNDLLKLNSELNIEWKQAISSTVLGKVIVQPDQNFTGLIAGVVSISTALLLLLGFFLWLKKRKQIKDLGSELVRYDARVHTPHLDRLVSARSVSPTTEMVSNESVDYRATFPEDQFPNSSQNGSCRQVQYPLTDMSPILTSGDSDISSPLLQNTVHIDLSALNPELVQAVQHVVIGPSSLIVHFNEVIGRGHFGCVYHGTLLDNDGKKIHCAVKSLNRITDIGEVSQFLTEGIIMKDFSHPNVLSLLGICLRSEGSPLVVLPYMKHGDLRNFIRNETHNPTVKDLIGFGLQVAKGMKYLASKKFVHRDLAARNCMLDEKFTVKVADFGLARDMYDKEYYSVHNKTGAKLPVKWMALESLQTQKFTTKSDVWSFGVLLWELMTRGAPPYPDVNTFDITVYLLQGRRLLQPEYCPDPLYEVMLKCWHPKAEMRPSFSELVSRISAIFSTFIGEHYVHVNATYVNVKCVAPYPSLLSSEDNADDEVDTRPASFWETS

B1: Emibetuzumab-IgG4 (Emi-IgG4) antibody (antibody, V domains shown)
VH: QVQLVQSGAEVKKPGASVKVSCKASGYTFTDYYMHWVRQAPGQGLEWMGRVNPNRRGTTYNQKFEGRVTMTTDTSTSTAYMELRSLRSDDTAVYYCARANWLDYWGQGTTVTVSS
VL: DIQMTQSPSSLSASVGDRVTITCSVSSSVSSIYLHWYQQKPGKAPKLLIYSTSNLASGVPSRFSGSGSGTDFTLTISSLQPEDFATYYCQVYSGYPLTFGGGTKVEIK
notes: heavy chain of emibetuzumab, IgG4; disclosed in WO 2010/059654; kappa light chain of emibetuzumab; IgG4; also called emibetuzumab analog; source: 293F cells, transiently co-transfected, purified from the supernatant (Protein A); copies: 2 + 2
B1: the Kd was found to be 650 pM.
